The values that follow come from article PMC5039005.

For assay [1], the target named is Str-Ct.Samp1(1–180) (Chaetomium thermophilum). Kind of assay: pull-down.
The target in assay [2] is Samp1-YFP (human) (UniProt Q5SNT2). Kind of assay: cross-linking + co-IP.

For “His6-Ran (from UniProt P62826 1-216) (natural protein)”, in assay [1], the fold binding, RanGTP against RanGDP worked out at 1.8 fold and the percent of RanGTP pulled down at a 1:1 molar ratio was found to be 40%.

Regarding “Ran (endogenous in tsBN2 and BHK-21 cells) (from UniProt A0A8C2MF66 1-216) (natural protein)”, the percent of total RanGTP bound in live cells in assay [2] worked out at 1%.
